Measurements published in patent US20260146107A1 (ALLIGATOR BIOSCIENCE, published 2026).

B1: AC_05081 (antibody, human IgG1, kappa, V domains shown)
VH: EVQLLESGGGLVQPGGSLRLSCAASGFTFSSSYMGWVRQAPGKGLEWVSSIGSGSYSTSYADSVKGRFTISRDNSKNTLYLQMNSLRAEDTAVYYCARYPSVPFQPHLDYWGQGTLVTVSS
VL: DIQMTQSPSSLSASVGDRVTITCRASQSISSYLNWYQQKPGKAPKLLIYAASSLQSGVPSRFSGSGSGTDFTLTISSLQPEDFATYYCQQAGNPHTFGQGTKLEIKR
B2: AC_05059 (antibody, human IgG1, kappa, V domains shown)
VH: EVQLLESGGGLVQPGGSLRLSCAASGFTFSSSYMGWVRQAPGKGLEWVSSIGSGSYSTSYADSVKGRFTISRDNSKNTLYLQMNSLRAEDTAVYYCARYPSVPFPPHLDYWGQGTLVTVSS
VL: DIQMTQSPSSLSASVGDRVTITCRASQSISSYLNWYQQKPGKAPKLLIYAASSLQSGVPSRFSGSGSGTDFTLTISSLQPEDFATYYCQQAGNPHTFGQGTKLEIKR
B3: AC_05080 (antibody, V domains shown)
VH: EVQLLESGGGLVQPGGSLRLSCAASGFTFSSSYMGWVRQAPGKGLEWVSSIGSGSYSTSYADSVKGRFTISRDNSKNTLYLQMNSLRAEDTAVYYCARYPSVPFPPLLDYWGQGTLVTVSS
VL: DIQMTQSPSSLSASVGDRVTITCRASQSISSYLNWYQQKPGKAPKLLIYAASSLQSGVPSRFSGSGSGTDFTLTISSLQPEDFATYYCQQAGNPHTFGQGTKLEIK
B4: AC_05089 (antibody, human IgG1, kappa, V domains shown)
VH: EVQLLESGGGLVQPGGSLRLSCAASGFTFSSSYMGWVRQAPGKGLEWVSSIGSGSYSTSYADSVKGRFTISRDNSKNTLYLQMNSLRAEDTAVYYCARYPSVPFPHHLDYWGQGTLVTVSS
VL: DIQMTQSPSSLSASVGDRVTITCRASQSISSYLNWYQQKPGKAPKLLIYAASSLQSGVPSRFSGSGSGTDFTLTISSLQPEDFATYYCQQAGNPHTFGQGTKLEIKR
B5: AC_05090 (antibody, human IgG1, kappa, V domains shown)
VH: EVQLLESGGGLVQPGGSLRLSCAASGFTFSSSYMGWVRQAPGKGLEWVSSIGSGSYSTSYADSVKGRFTISRDNSKNTLYLQMNSLRAEDTAVYYCARYPSVPFPLHLDYWGQGTLVTVSS
VL: DIQMTQSPSSLSASVGDRVTITCRASQSISSYLNWYQQKPGKAPKLLIYAASSLQSGVPSRFSGSGSGTDFTLTISSLQPEDFATYYCQQAGNPHTFGQGTKLEIKR
B6: AC_05088 (antibody, human IgG1, kappa, V domains shown)
VH: EVQLLESGGGLVQPGGSLRLSCAASGFTFSSSYMGWVRQAPGKGLEWVSSIGSGSYSTSYADSVKGRFTISRDNSKNTLYLQMNSLRAEDTAVYYCARYPSVLFPPHLDYWGQGTLVTVSS
VL: DIQMTQSPSSLSASVGDRVTITCRASQSISSYLNWYQQKPGKAPKLLIYAASSLQSGVPSRFSGSGSGTDFTLTISSLQPEDFATYYCQQAGNPHTFGQGTKLEIKR
B7: AC_05099 (antibody, V domains shown)
VH: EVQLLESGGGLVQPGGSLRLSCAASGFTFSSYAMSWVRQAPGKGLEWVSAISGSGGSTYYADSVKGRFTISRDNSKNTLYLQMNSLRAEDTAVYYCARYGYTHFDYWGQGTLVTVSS
VL: DIQMTQSPSSLSASVGDRVTITCRASQSISSYLNWYQQKPGKAPKLLIYAASSLQSGVPSRFSGSGSGTDFTLTISSLQPEDFATYYCQQAGNPHTFGQGTKLEIK

How the values were obtained:
[1] = target: T1, human CEACAM5, recombinant (R&D Systems #4128-CM-050) (human, UniProt P06731 35-685); assay: Octet BLI, IgG1 captured on AHC tips, CEACAM5-His in solution, 1:1 fit
T1 construct: Bought; coated in ELISA and used as monomeric analyte in Octet; also called hCEACAM-5; Human CEACAM5-His; not shown: His tag
T1 sequence (looked up): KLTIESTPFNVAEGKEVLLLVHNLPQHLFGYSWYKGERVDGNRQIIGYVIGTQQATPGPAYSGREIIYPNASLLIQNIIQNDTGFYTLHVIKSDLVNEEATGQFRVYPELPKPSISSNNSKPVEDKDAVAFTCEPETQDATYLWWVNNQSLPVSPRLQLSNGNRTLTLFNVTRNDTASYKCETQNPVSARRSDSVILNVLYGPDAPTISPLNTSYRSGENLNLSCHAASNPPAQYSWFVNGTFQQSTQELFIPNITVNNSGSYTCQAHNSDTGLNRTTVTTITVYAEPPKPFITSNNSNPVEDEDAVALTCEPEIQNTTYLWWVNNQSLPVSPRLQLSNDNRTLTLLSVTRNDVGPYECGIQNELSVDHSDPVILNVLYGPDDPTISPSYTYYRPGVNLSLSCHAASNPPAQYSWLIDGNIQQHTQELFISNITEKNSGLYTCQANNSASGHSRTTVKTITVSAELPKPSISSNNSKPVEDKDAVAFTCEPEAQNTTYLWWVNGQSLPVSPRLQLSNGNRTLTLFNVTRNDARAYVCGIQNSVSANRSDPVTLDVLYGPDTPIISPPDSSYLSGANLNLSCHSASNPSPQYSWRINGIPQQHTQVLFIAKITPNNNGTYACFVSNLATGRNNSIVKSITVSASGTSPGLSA
Description: Kinetic measurements were performed in the Octet RED96 platform using several different setups. Monoclonal antibodies (listed in Table 9), serially diluted ½ starting at 100 nM, were captured to anti human IgG Fc Capture (AHC) Biosensor tips (Sartorius #18-5060). Human CEACAM5-His (R&D Systems #4128-CM-050) diluted in 1× kinetic buffer (Sartorius) at 100 nM was then added. Binding kinetics was studied in 1× kinetic buffer where association was allowed for 300 sec followed by dissociation for 600 sec. Sensor tips were regenerated with 10 mM Glycine pH 1.7. Data generated were referenced by subtracting blank or parallel buffer blank, the baseline was aligned to the y-axis, inter-step correction by alignment against dissociation was performed and the data was smoothed by Savitzky-Golay filter in the data analysis software (v9.0.0.14). The processed data was fitted using a 1:1 Langmuir binding model with R² or X² as a measurement of fitting accuracy.

[2] = target: T2, human CEACAM1, recombinant (R&D Systems #2244-CM-050) (human, UniProt P13688 35-428); assay: ELISA, antigen coated at 0.5 µg/mL, IgG1 antibody at 10 µg/ml, anti-human kappa-HRP, luminescence
T2 construct: also called hCEACAM-1
T2 sequence (looked up): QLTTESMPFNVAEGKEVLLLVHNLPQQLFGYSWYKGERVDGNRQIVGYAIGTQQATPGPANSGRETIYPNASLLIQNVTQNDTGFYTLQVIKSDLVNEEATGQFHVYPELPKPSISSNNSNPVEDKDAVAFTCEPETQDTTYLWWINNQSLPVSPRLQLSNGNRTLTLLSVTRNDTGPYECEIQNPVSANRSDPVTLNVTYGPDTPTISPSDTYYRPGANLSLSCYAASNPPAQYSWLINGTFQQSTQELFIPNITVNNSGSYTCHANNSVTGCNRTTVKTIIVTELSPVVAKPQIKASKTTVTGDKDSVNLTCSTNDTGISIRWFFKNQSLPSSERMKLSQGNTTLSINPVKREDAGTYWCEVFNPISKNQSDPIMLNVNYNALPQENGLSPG
Description: 96-well plates were coated with 0.5 μg/mL antigen, hCEACAM-5 (4128-CM-050, R&D Systems), hCEACAM-1 (2244-CM-050, R&D Systems), hCEACAM-6(3934-CM-050, R&D Systems) or CEACAM-8 (9639-CM-050, R&D Systems) in PBS over night at 4° C. After washing with PBS/0.05% Tween 20 (PBST), the plates were blocked with PBST, 2% BSA for at least 30 minutes at room temperature before a second round of washing. […] After washing, plates were incubated with 50 μl detection antibody (0.5 μg/ml HRP conjugated goat anti human-kappa light chain, #STAR127P, AbD Serotec). Finally, a final round of washing was performed and bound complexes detected using SuperSignal Pico Luminescent as substrate and luminescence signals were measured using Fluostar Optima.

Binder	Kd [1] [nM]	koff [1] [s⁻¹]	kon [1] [M⁻¹ s⁻¹]	binding result [2]
B1	100	0.008	60000	no binding (tested: 10 µg/ml)
B2	< 0.001	< 1e-07	300000	–
B3	0.008	2e-06	200000	binds
B4	40	0.01	300000	no binding (tested: 10 µg/ml)
B5	20	0.004	300000	no binding (tested: 10 µg/ml)
B6	20	0.03	1e+06	no binding (tested: 10 µg/ml)
B7	–	–	–	no binding (tested: 10 µg/ml)
